Experimental data taken from patent US20250011413A1 (MCMASTER UNIVERSITY, published 2025).

Assays:
[1] = biological target: T1, Human PF4 (CXCL4), biotinylated, without heparin (human, UniProt P02776 32-101, biotinylated with EZ-link-Sulfo-NHS-LC-Biotin (sites not given)); assay: BLI (Octet), biotinylated PF4 without heparin on streptavidin sensors, scFv at 1 µg/mL, 1:1 model, mean ± s.d. [cont.) b]
T1 construct: Immobilised on streptavidin biosensors for BLI; also called PF4 alone; platelet factor 4
T1 sequence: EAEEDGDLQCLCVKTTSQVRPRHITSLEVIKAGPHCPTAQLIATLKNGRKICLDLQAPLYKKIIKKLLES
Description: (§1) BLI experiments were performed using wildtype scFv, mutant B, mutant C, mutant D, mutant E, and mutant F at 1 μg/mL. Binding was measured against immobilized biotinylated PF4 on streptavidin biosensors. b) Table showing kinetic data of wildtype and mutant scFv, including binding responses and association and dissociation rates. All data was analyzed based on a 1:1 homogenous ligand binding model using Octet® User Software version 3.1.
(§2) The Octet-QK Red 96 (FortéBio, Menlo Park, CA) instrumentation was used to conduct all BLI experiments. A 96-well microtiter plate (black, flat-bottom) was used to hold 200 μL per well of either sample or buffer. Pre-coated streptavidin biosensor tips (FortéBio) were hydrated in phosphate buffered saline (PBS) containing 1% bovine serum albumin (BSA, Sigma-Aldrich) before performing all kinetic assays. Each step was performed at an operating temperature of 23° C. with agitation at 1000 rpm. Streptavidin tips were first equilibrated in PBS+1% BSA to establish a baseline. […] The PF4-coated tips were then dipped into PBS+1% BSA for 13 minutes to re-establish a baseline. Tips were then incubated in an analyte solution containing half-fold dilutions of wildtype scFv (4.0, 2.0, 1.0, 0.5, 0.25 μg/mL in PBS+1% BSA) for 10 minutes to measure association. For mutant scFv association, tips were incubated in an analyte solution containing 200 μL of each mutant and wildtype scFv at a final concentration of 1 μg/mL in PBS+1% BSA. Antibody dissociation steps were performed by dipping sensors in wells containing PBS+1% BSA for 56 minutes. The following negative controls included in these kinetic experiments were also measured: 200 μL of buffer to replace both the antigen and scFv and 200 μL buffer replacing scFv only. Each experiment was performed with PF4 or with PF4/heparin as the immobilized antigen.
(§3) BLI experiments were performed to evaluate binding responses and affinities of wildtype and mutant scFv. Biotinylated PF4 alone or complexed with heparin was immobilized on streptavidin biosensors and used to capture wildtype scFv.

[2] = biological target: T2, PF4/heparin complex (human PF4 complexed with heparin) (human, UniProt P02776 32-101); assay: BLI (Octet), biotinylated PF4/heparin on streptavidin sensors, scFv 1 µg/mL
T2 construct: Multimeric complex of PF4 with heparin (not a protein); In the EIAs: PF4 captured on biotinylated heparin on streptavidin plates; In the SRA: platelets with 0.2 U/mL heparin; also called PF4 and heparin complexes
T2 sequence: T1 sequence
Description: as §2
(§4) BLI experiments were performed to evaluate binding responses and affinities of wildtype and mutant scFv. Biotinylated PF4 alone or complexed with heparin was immobilized on streptavidin biosensors and used to capture wildtype scFv. Half-fold serial dilutions of wildtype scFv ranging from 0.25 μg/mL to 4 μg/mL were used to determine the optimal concentrations for future experiments PF4 (PF4 FIG. 3; PF4/heparin FIG. 4).

[3] = biological target: T2, PF4/heparin complex (human PF4 …); assay: competition EIA, scFv 50 µg/mL; competitor HIT-positive sera antibodies, n=10
Description: (§5) Inhibitory PF4/heparin IgG-specific Streptavidin Enzyme Immunoassay (EIA). The binding activity of wildtype and mutant scFv antibodies to PF4/heparin complexes was measured using an inhibitory PF4/heparin IgG-specific EIA with a streptavidin-biotin capture system. Before performing this protocol, 96-well NUNC Maxisorp plates (ThermoFisher) were coated with 10 μg/mL streptavidin for 24 h. Plates were then blocked with 3% bovine serum albumin (BSA) in phosphate buffered saline (PBS) for 2 h at room temperature. Plates were then coated with 1 U/mL biotinylated-heparin for 1 h followed by 30 μg/mL PF4 for 1 h. Increasing concentrations of wildtype or mutant scFv were added and incubated for 1 hr at room temperature. Without removing wildtype or scFv, HIT patient sera in a 1:50 dilution or full-length KKO (2 μg/mL) was then incubated for 1 h at room temperature. After washing, alkaline phosphatase-conjugated anti-human or anti-mouse IgG (Jackson Immuno Research Laboratories, Inc., West Grove, PA) was added at a 1:4000 dilution and incubated for 1 h temperature. For detection, 1 mg/mL p-nitrophenylphosphate (PNPP, Sigma-Aldrich) substrate dissolved in 1 mol/L diethanolamine (DEA) buffer (pH 9.6) was added. The optical density (OD) was measured at 2 min intervals for 30 min at 405 nm (OD₄₀₅ₙₘ) using a BioTek 800 TS plate reader (BioTek Instruments Inc., Winooski, VT) to determine if anti-PF4/heparin antibody binding was inhibited. Results were reported as a decrease in OD (absorbance at 405 nm) from baseline levels.
Inhibiting HIT-Positive (EIA+/SRA+) HIT-Negative (EIA+/SRA−) antibody binding: Sera (n=10) from confirmed HIT-positive patients (EIA-positive/SRA-positive) containing anti-PF4/heparin antibodies were used in a modified streptavidin-biotin based anti-PF4/heparin IgG EIA (streptavidin anti-PF4/hep EIA) with scFv at 50 μg/mL. On average, antibody binding to PF4/heparin was reduced in the presence of scFv.

[4] = biological target: T2, PF4/heparin complex (human PF4 …); assay: competition EIA, scFv 50 µg/mL; competitor HIT-negative sera antibodies, n=10
Description: as §5
Sera (n=10) from confirmed HIT-negative patients (EIA-positive/SRA-negative) containing anti-PF4/heparin antibodies were then used in the same EIA with scFv constructs to determine if antibody binding was decreased in this cohort (Table 5).

[5] = biological target: T2, PF4/heparin complex (human PF4 …); assay: as above; remark: listed apart in the source
[6] = biological target: T2, PF4/heparin complex (human PF4 …); assay: competition EIA, scFv 50 µg/mL; competitor HIT-positive sera antibodies, n=10; remark: listed apart in the source
[7] = biological target: T2, PF4/heparin complex (human PF4 …); assay: BLI (Octet), biotinylated PF4/heparin on streptavidin sensors, scFv 1 µg/mL, 1:1 model
Description: as §2, §4

[8] = biological target: T1, Human PF4 (CXCL4), biotinylated, …; assay: BLI (Octet), biotinylated PF4 without heparin on streptavidin sensors, scFv 1 µg/mL, 1:1 model
Description: as §2, §4

[9] = biological target: T2, PF4/heparin complex (human PF4 …); assay: cell-based or functional assay
[10] = biological target: T2, PF4/heparin complex (human PF4 …); assay: BLI (Octet), biotinylated PF4/heparin on streptavidin sensors, scFv at 1 µg/mL, 1:1 model, mean ± s.d.
Description: as §1, with “PF4/heparin complexes” for “PF4”, “Octet®)” for “Octet®”
as §2, §3

[11] = biological target: T1, Human PF4 (CXCL4), biotinylated, …; assay: BLI (Octet), biotinylated PF4 without heparin on streptavidin sensors, scFv 1 µg/mL
Description: as §2, §4

B1: Mutant C scFv, scFv(S50N, Y53H) (scFv)
scFv: DIQMIQSQKFMSTSVGDRVTVTCKASQNVGTNVAWYQQKPGQSPNALIYNASHRYSGVPDRFTGSGSGTDFTLTITNVQSEDLADYFCQQYNSYPLTFGTGTKLDLKGGGGSGGGGSGGGGSVQLQQSGAELVKPGASVKLSCKASGYTFTNYFIYWVKQRPGQGLEWIGEINPRNGDTDFNEKFESRATLTVDKSSSTAYMQLSSLTSEDSAIYYCTRSPYGNNYGFTYWGQGTLVTVSA
notes: VL-linker-VH; histidine-tagged, from E. coli BL21; also called Mut C; not shown: histidine tag from the pADL-22c vector
[1]
  koff: 0.000215 s⁻¹
  kon: 16900 M⁻¹ s⁻¹
[2]
  average binding response (wavelength shift): 0.159 nm
  fold higher binding response than wildtype scFv: 2 fold
[3]
  mean OD405nm of bound serum IgG (+ scFv): 0.799 OD405nm
[4]
  mean OD405nm of bound serum IgG (+ scFv): 1.24 OD405nm
[5]
  mean % inhibition of serum antibody binding: -42.5%
[6]
  mean % inhibition of serum antibody binding: 50.6%
[7]
  Kd: 3.81 nM
  fold increased affinity against wildtype scFv: 10 fold
[8]
  Kd: 1660 nM
[9]
  % inhibition of 14C-serotonin release (SRA), HIT-Positive Patient #1 serum, scFv 50 µg/mL: 14.4%
  % inhibition of 14C-serotonin release (SRA), HIT-Positive Patient #1 serum, scFv 75 µg/mL: 22.2%
  % inhibition of 14C-serotonin release (SRA), HIT-Positive Patient #2 serum, scFv 50 µg/mL: 15.4%
  % inhibition of 14C-serotonin release (SRA), HIT-Positive Patient #2 serum, scFv 75 µg/mL: 21.8%
  % inhibition of 14C-serotonin release (SRA), HIT-Positive Patient #3 serum, scFv 50 µg/mL: -1.2%
  % inhibition of 14C-serotonin release (SRA), HIT-Positive Patient #3 serum, scFv 75 µg/mL: 9.6%
  % inhibition of 14C-serotonin release (SRA), HIT-Positive Patient #4 serum, scFv 50 µg/mL: 3.3%
  % inhibition of 14C-serotonin release (SRA), HIT-Positive Patient #4 serum, scFv 75 µg/mL: 5.6%
  % inhibition of 14C-serotonin release (SRA), HIT-Positive Patient #5 serum, scFv 50 µg/mL: 22.2%
  % inhibition of 14C-serotonin release (SRA), HIT-Positive Patient #5 serum, scFv 75 µg/mL: 6.9%
[10]
  koff: 0.000477 s⁻¹
  kon: 85800 M⁻¹ s⁻¹
[11]
  average binding response (wavelength shift): 0.0399 nm
